{"source": "patent US6872537B1", "about": "“Assays for the detection of microtubule depolymerization inhibitors” (Regents of the University of California, priority 1998, dated 2005)", "origin": "cited, not measured here", "conditions": "literature values for comparison"}
{"substance": "p97: AAA ATPase cited for comparison [reference compound]", "values": [{"measurement": "ATPase activity of other AAA family members", "value": 1, "unit": "ATP/sec"}]}
